In patent publication US20030084477, “Genes enhancing disease resistance in plants” (published 2003):

What was measured:
GST-Pti5 [1] = target: T1, GST-Pti5 (Solanum lycopersicum, UniProt O04681 O04681:1-161); assay: EMSA; 25 mM Hepes pH 7.5, 40 mM KCl, 0.1 mM EDTA, 10% glycerol, 1 mM DTT, poly(dA-dT), room temp; WT sequence printed with stray 'to' in the middle; conditions: tags: N-terminal GST (pGEX, E. coli PR745; cDNA nt 82-782); label: 32P end label
Experimental: (§1) The wild type gln2 PR-box 2x ([…] to […]) and mutated PR-box 2x ([…]) were end-labeled by 32P as described by Ausubel, F. M., Brent, R., Kingston, R. E., Moore, D. D., Seidman, J. G., Smith, J. A., and Struhl, K. (1994). Current Protocols in Molecular Biology. (New York: Greene Publish Associates/John Wiley and Sons). Four fmol of probe was mixed with each of the purified GST-fusion proteins in a buffer containing 2 μg poly(dA-dT) (dA-dT), 25 mM Hepes (PH7.5), 40 mM KCl, 0.1 mM EDTA, 10% glycerol, and 1 mM DTT, incubated at room temperature for 15 minutes, and electrophoresed on a 4% polyacrylamide gel in 0.25×TBE buffer. Ohme-Takagi, M. and Shinshi, H. (1995). Ethylene-inducible DNA-binding proteins that interact with an ethylene-responsive element. Plant Cell 7, 173-182. The gel was subsequently dried and exposed to x-ray film. […] In contrast to GST-Pti5 and GST-Pti6, neither GST-Ptil nor GST itself bound to the PR-box.

GST-Pti5 [2] = target: T1, GST-Pti5; assay: EMSA; no binding detected; conditions: tags: N-terminal GST (pGEX, E. coli PR745; cDNA nt 82-782); label: 32P end label
Experimental: as §1

T1 sequence (O04681 whole entry, the tested form may be a part, one chain of several): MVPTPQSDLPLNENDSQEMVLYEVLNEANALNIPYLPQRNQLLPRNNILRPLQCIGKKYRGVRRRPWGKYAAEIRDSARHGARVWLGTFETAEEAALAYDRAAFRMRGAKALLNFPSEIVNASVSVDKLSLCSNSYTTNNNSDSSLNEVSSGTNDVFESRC

B1: wild type gln2 PR-box 2x (dsDNA)
DNA 1: CATAAGAGCCGCCACTAAAATAAGACCGATCAAATAAGAGCCGCCAT
DNA 2: ATGGCGGCTCTTATTTGATCGGTCTTATTTTAGTGGCGGCTCTTATG
GST-Pti5 [1]
  binding result: binds

B2: mutated PR-box 2x (dsDNA)
DNA 1: CATAAGATCCTCCACTAAAATAAGACCGATCAAATAAGATCCTCCAT
DNA 2: ATGGAGGATCTTATTTGATCGGTCTTATTTTAGTGGAGGATCTTATG
GST-Pti5 [2]
  binding result: no binding
